Substitutions are numbered along the chain they refer to. Like-named read-outs stand apart in the source and are kept apart here.
T1: human CD16b as FACS target of FIGS. 6B-10B (human, UniProt O75015 17-200)
T1 chain: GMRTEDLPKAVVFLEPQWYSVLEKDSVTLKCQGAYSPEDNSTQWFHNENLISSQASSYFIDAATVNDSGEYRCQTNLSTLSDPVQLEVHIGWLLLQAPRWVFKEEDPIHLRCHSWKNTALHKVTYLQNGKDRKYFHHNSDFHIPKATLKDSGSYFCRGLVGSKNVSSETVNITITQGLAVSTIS

T2: cynomolgus monkey CD16a on HEK293 cells expressing cyno monkey CD16a (constructed by Genscript) (cynomolgus monkey, UniProt Q8SPW2 17-254)
T2 chain: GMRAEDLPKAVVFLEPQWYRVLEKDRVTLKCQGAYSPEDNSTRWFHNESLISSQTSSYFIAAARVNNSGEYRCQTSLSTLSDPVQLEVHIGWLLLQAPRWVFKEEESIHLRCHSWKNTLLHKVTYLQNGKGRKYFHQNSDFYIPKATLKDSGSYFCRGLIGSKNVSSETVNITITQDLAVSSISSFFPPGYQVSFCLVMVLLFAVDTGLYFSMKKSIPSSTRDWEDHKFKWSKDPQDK

B1: AR8875 sdAb fusion protein with mIgG1 Fc (Fc fusion)
chain: QVQLVESGGGLVQPGGSLRLSCAASGFTFSNYAMTWVRQAPGKGLEWVSSIDRGGSITSYADSVKGRFAISRDNAKNTMYLQMNNLRPEDTARYVCARGDSTYSRLTAAYRGQGTQVTVSSVPRDCGCKPCICTVPEVSSVFIFPPKPKDVLTITLTPKVTCVVVDISKDDPEVQFSWFVDDVEVHTAQTQPREEQFNSTFRSVSELPIMHQDWLNGKEFKCRVNSAAFPAPIEKTISKTKGRPKAPQVYTIPPPKEQMAKDKVSLTCMITDFFPEDITVEWQWNGQPAENYKNTQPIMDTDGSYFVYSKLNVQKSNWEAGNTFTCSVLHEGLHNHHTEKSLSHSPGK
B2: AR8776 sdAb fusion protein with mIgG1 Fc (Fc fusion)
chain: B1 chain with Q1A, T35S, D52N, S59N, M79I, R93Q, V95S, T107S
B3: AR8866 sdAb fusion protein with mIgG1 Fc (Fc fusion)
chain: QVKLEESGGGLVQPGGSLRLSCVASGFTFSVWTMSWVRQAPGKGLEWVSDISHSGIYTTYADSVKGRFTISRDNAKNTLWLQLNALKPEDTAVYYCAQGNRRNSMLSGTLRGQGTQVTVSSVPRDCGCKPCICTVPEVSSVFIFPPKPKDVLTITLTPKVTCVVVDISKDDPEVQFSWFVDDVEVHTAQTQPREEQFNSTFRSVSELPIMHQDWLNGKEFKCRVNSAAFPAPIEKTISKTKGRPKAPQVYTIPPPKEQMAKDKVSLTCMITDFFPEDITVEWQWNGQPAENYKNTQPIMDTDGSYFVYSKLNVQKSNWEAGNTFTCSVLHEGLHNHHTEKSLSHSPGK
B4: AR8861 sdAb fusion protein with mIgG1 Fc (Fc fusion)
chain: B3 chain with Q1A, K3Q, E5V, E6D, V31I, I56L, N103T
B5: AR8820 sdAb fusion protein with mIgG1 Fc (Fc fusion)
chain: QVKLEESGGGLVQAGGSLRLSCAASGSSISRYAMAWYRQGPGKERELVAVVRITGSPIYADFVGGRFTISRDNAKSTVLLQMNSLKPEDTAIYYCNTGNFNTYTRRYSPSETWGQGTQVTVSSVPRDCGCKPCICTVPEVSSVFIFPPKPKDVLTITLTPKVTCVVVDISKDDPEVQFSWFVDDVEVHTAQTQPREEQFNSTFRSVSELPIMHQDWLNGKEFKCRVNSAAFPAPIEKTISKTKGRPKAPQVYTIPPPKEQMAKDKVSLTCMITDFFPEDITVEWQWNGQPAENYKNTQPIMDTDGSYFVYSKLNVQKSNWEAGNTFTCSVLHEGLHNHHTEKSLSHSPGK
B6: AR8804 sdAb fusion protein with mIgG1 Fc (Fc fusion)
chain: B5 chain with Q1A, K3Q, E5V, E6D, I29V, G40A, S56I, G64K, S76N, K86E
B7: AR8887 sdAb fusion protein with mIgG1 Fc (Fc fusion)
chain: QVQLVESGGGLVQAGGSLRLSCAVSGFLYYSIGWFRQAPGKEREWVSCISRSGAGTSYANSVKGRSTISRDNDKNTVYLQMNSLKSEDTAVYYCARRATSSCTATMTRGQYDYWGQGTQVTVSSVPRDCGCKPCICTVPEVSSVFIFPPKPKDVLTITLTPKVTCVVVDISKDDPEVQFSWFVDDVEVHTAQTQPREEQFNSTFRSVSELPIMHQDWLNGKEFKCRVNSAAFPAPIEKTISKTKGRPKAPQVYTIPPPKEQMAKDKVSLTCMITDFFPEDITVEWQWNGQPAENYKNTQPIMDTDGSYFVYSKLNVQKSNWEAGNTFTCSVLHEGLHNHHTEKSLSHSPGK
B8: pTT5-AR8820-2.3mIgG1Fc (Fc fusion)
VHH-Fc: EVQLVESGGGLIQPGGSLRLSCAASGSSISRYAMAWYRQAPGKGRELVSVVRITGSPIYADFVGGRFTISRDNSKNTLYLQMNSLRAEDTAVYYCNRGNFNTYTRRYSPSETWGQGTTVTVSSVPRDCGCKPCICTVPEVSSVFIFPPKPKDVLTITLTPKVTCVVVDISKDDPEVQFSWFVDDVEVHTAQTQPREEQFNSTFRSVSELPIMHQDWLNGKEFKCRVNSAAFPAPIEKTISKTKGRPKAPQVYTIPPPKEQMAKDKVSLTCMITDFFPEDITVEWQWNGQPAENYKNTQPIMDTDGSYFVYSKLNVQKSNWEAGNTFTCSVLHEGLHNHHTEKSLSHSPGK
B9: pTT5-AR8820-3.1 mIgG1Fc (Fc fusion)
heavy: B8 VHH-Fc with I12V, S49A, S74A, T77S, N96A, R97T, T118L
B10: pTT5-AR8820-2.1mIgG1Fc (Fc fusion)
VHH-Fc: B8 VHH-Fc with N96A, R97T
B11: pTT5-AR8820-3.3 mIgG1Fc (Fc fusion)
VHH-Fc: B8 VHH-Fc with I12V, S49A, S74A, T77S, R97T, T118L
B12: pTT5-AR8820-1.3mIgG1Fc (Fc fusion)
heavy: B8 VHH-Fc with E1Q, L11V, I12V, S49A, R97T, Q115K
B13: pTT5-AR8804-3.3mIgG1Fc (Fc fusion)
heavy: B8 VHH-Fc with E1Q, L11V, I12V, I29V, S49A, S56I, G64K, R97T, Q115K
B14: pTT5-AR8820-1.2mIgG1Fc (Fc fusion)
heavy: B8 VHH-Fc with E1Q, L11V, I12V, L47W, S49A, N96A, R97T, Q115K
B15: pTT5-AR8820-1.1mIgG1Fc (Fc fusion)
heavy: B8 VHH-Fc with E1Q, L11V, I12V, S49A, N96A, R97T, Q115K
B16: pTT5-AR8804-3.2 mIgG1Fc (Fc fusion)
heavy: QVQLVESGGGVVQPGGSLRLSCAASGSSVSRYAMAWYRQAPGKGREWVAVVRITGIPIYADFVKGRFTISRDNSKNTLYLQMNSLRAEDTAVYYCATGNFNTYTRRYSPSETWGKGTTVTVSSVPRDCGCKPCICTVPEVSSVFIFPPKPKDVLTITLTPKVTCVVVDISKDDPEVQFSWFVDDVEVHTAQTQPREEQFNSTFRSVSELPIMHQDWLNGKEFKCRVNSAAFPAPIEKTISKTKGRPKAPQVYTIPPPKEQMAKDKVSLTCMITDFFPEDITVEWQWNGQPAENYKNTQPIMDTDGSYFVYSKLNVQKSNWEAGNTFTCSVLHEGLHNHHTEKSLSHSPGK

What was measured:
[1] = biological target: recombinant human CD16a-His protein (Acro Biosystems; catalog #: CDA-H52S1) (human, UniProt P08637 17-208); assay: ELISA (OD450; legend says FACS)
[2] = biological target: T3, human CD16a on HEK293 cells expressing human CD16a (constructed by Genscript) (human, UniProt P08637 17-254); assay: FACS
[3] = biological target: T1, human CD16b as FACS target of FIGS. …; assay: FACS
[4] = biological target: T2, cynomolgus monkey CD16a on HEK293 cells …; assay: FACS
[5] = biological target: T3, human CD16a on HEK293 cells expressing …; assay: FACS; remark: listed apart in the source
[6] = biological target: T1, human CD16b as FACS target of FIGS. …; assay: FACS

T3 sequence (P08637 17-254): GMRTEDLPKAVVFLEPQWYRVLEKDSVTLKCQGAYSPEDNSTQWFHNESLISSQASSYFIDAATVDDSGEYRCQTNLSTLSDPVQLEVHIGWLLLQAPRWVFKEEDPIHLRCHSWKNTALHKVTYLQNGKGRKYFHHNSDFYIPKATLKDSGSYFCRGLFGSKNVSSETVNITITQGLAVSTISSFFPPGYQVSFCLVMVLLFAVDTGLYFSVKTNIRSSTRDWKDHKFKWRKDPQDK
recombinant human CD16a-His protein (Acro Biosystems; catalog #: CDA-H52S1), sequence (P08637 17-208): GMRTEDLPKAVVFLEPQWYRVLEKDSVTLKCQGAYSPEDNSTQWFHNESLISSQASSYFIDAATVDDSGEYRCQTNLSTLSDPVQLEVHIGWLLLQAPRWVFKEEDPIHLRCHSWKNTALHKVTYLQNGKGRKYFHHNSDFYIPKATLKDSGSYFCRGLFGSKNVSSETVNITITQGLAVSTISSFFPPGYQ

Binder | EC50 [1] [µg/mL] | EC50 [2] [µM] | EC50 [3] [µM] | EC50 [4] [µM] | further results
B1 | 0.018 | – | – | – | –
B2 | 0.0155 | – | – | – | –
B3 | 0.0174 | – | – | – | –
B4 | 0.0227 | – | – | – | –
B5 | 0.0151 | – | – | – | –
B6 | 0.0158 | – | – | – | –
B7 | 0.0217 | – | – | – | –
B8 | – | 0.000332 | ~167 | 0.000745 | –
B9 | – | – | – | 0.000738 | EC50 [5]: 0.000419 µM; EC50 [6]: 0.0623 µM
B10 | – | 0.000494 | ~7840 | 0.000787 | –
B11 | – | – | – | 0.000751 | EC50 [5]: 0.000452 µM; EC50 [6]: 0.0618 µM
B12 | – | 0.000384 | – | 0.000772 | –
B13 | – | 0.000412 | – | 0.000838 | –
B14 | – | 0.00047 | ~0.497 | 0.000914 | –
B15 | – | 0.00038 | ~65.6 | 0.00092 | –
B16 | – | 0.000444 | ~195 | 0.000928 | –

From US20240352128A1 (published 2024)
